Assay: yeast display, Sf9 membrane polyspecificity reagent, FACS + sequencing; frameworks hold sequencing errors
In short: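 Synthetic nanobody libraries on Saccharomyces cerevisiae BJ5465 were galactose-induced for 36–48 hours, stained 1 hour at 4 °C with 10% biotinylated, detergent-solubilized Sf9 membrane reagent and enriched on streptavidin microbeads. FACS then separated cells into low and high (top ~1%) gates by anti-HA (expression) and streptavidin (reagent binding) fluorescence. Genes were colony-PCR amplified, MiSeq 2 × 250 sequenced and CDR-length filtered. A clone's polyreactivity label is that of its gate of origin.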

Row | Sequence | polyreactivity (PSR sort gate)
1 | QVQLVESGGGLVQAGGSLRLSCAASGITFVRYAMGGYRQAPGKESELVAGISRGGSTNYADSVKGRFTISRDNAKNTVYLQMNSLKPEDSAVYYCNALYARRVYVGYDYWGQGTQVTVSS | high polyreactivity
2 | QVQLVESGGGLVQAGGSLRLSCAASGITFVRYAMGWYRQAPGKERELVAAISSGGSTHYADSVKGRFTISRDNAKNTVYLQMYSLKPEDTAVYYCAAQWTESSLYRFGYLGQGTQVTVSS | high polyreactivity
3 | QVQLVESGGGLVQAGGSLRLSCAASGITFVRYAMGWYRQAPGKERELVATINWSGGSTYYADSVKGRFTISRDNAKNTVYLQMNSLKPEDTAVYYCAAYYVHPVYDVGHYDYWGQGTQVTVSS | low polyreactivity
4 | QVQLVESGGGLVQAGGSLRLSCAASGITFVRYAMGWYRQATGKERELVAGISRGGSTNYADSVKGRFTISRDNAKNTVYLQMNSLKPEDTAVYYCNRVFTWRYGYRYEYWGQGTQVTVSS | high polyreactivity
5 | QVQLVESGGGLVQAGGSLRLSCAASGITFVWNAMGWYIKEPGKERELVATISRGGVRTYYADSVKGRFTISRDNAKNTVYLQMNSLKPEDTAVYYCNAYFEYYDYWGQGTQVSVSS | low polyreactivity
6 | QVQLVESGGGLVQAGGSLRLSCAASGITFVYNDMGSYRQAPGKESELVAAISWRGGSTYYADSVKGRFTISRDNAKNTVYLQMNSLKPEDTAVYYCNKLPTYPEYGYDSWGQGTQVTVSS | high polyreactivity
7 | QVQLVESGGGLVQAGGSLRLSCAASGITFVYYDMGWYRQAPGKERELLAAISSGGSTYYADSVKGRFTISRDNAKNTVYLQMNSLKPEDTAVYYCAAKISSNYHIGGDDYWGQGTQVSVSS | high polyreactivity
8 | QVQLVESGGGLVQAGGSLRLSCAASGITFVYYDMGWYRQAPGKERELVAAISSGGSTYYADSVKGRFTISRDNAKNNVYLQMNRLKPEDTAVYYCAAKISSNYHIGGDDYWGQGTQVTVSS | high polyreactivity
9 | QVQLVESGGGLVQAGGSLRLSCAASGITFVYYTMGWYRQAPGKERELVASITWDGRSTYYADSVKGRFTISRDNAKNTVYLQMNSLKPEDTAVYYCNRDRVSGGKYNYWGQGTQVTVSS | low polyreactivity
10 | QVQLVESGGGLVQAGGSLRLSCAASGITFWFNAMGWYRQAPGQERELVAAITSGVDTNYADSVKGRFTISRDNAKNTVYLQMNSLIPEDTAVYYCAAQGGRLKRGRTTSDYWGQGTQVTVSS | low polyreactivity
11 | QVQLVESGGGLVQAGGSLRLSCAASGITFWHNTMGWYRQAPGKERELVAAISWTGGRTYYADSVKGRFTISRDNAKNSVYLQMNSLKPEDTPVYYCAADFSWTPSGNYDSWGQGTQVTVSS | low polyreactivity
12 | QVQLVESGGGLVQAGGSLRLSCAASGITFWVYAMGWYRQAPGKERELVAAISRRGGSTSYADSVKGRFTISRDNAKNTVYLQMNSLKPEDTAVYYCAATTYTHPYGYWGQGTQVTVSS | high polyreactivity
13 | QVQLVESGGGLVQAGGSLRLSCAASGITFWYYAMGWYRQAPGKERELVAAITGGDSTNYADSVKGRFTISRDNAKNTVYLQMNSLKPEDTAVYYCNAEGSYEGYDDYWGQGTQVTVSS | high polyreactivity
14 | QVQLVESGGGLVQAGGSLRLSCAASGITFWYYAMGWYRQAPGKERELVAVISRGGSTYYADSVKGRFTISRDNAKNTVYLQLNSLKPEDTAVYYCAARPRWYTYTRQEYDYWGQGTQVTVSS | high polyreactivity
15 | QVQLVESGGGLVQAGGSLRLSCAASGITFWYYTMGWYRQAPGKERELVARITSGSRTSYADSVKGRFTISRDNAKNTVYLQMNSLKPEDTAVYYCAAGSYADRLWSKYNYWGQGTQVTVSS | high polyreactivity
16 | QVQLVESGGGLVQAGGSLRLSCAASGITFYDNVMGWYRQAPGKERELVAAITSGGSTNYADSVKGRFTISRDNAKNTVYLQMNSLKPEDTAVYYCAAQTRVDYEFPYRYGYWGQGTQVTVSS | low polyreactivity
17 | QVQLVESGGGLVQAGGSLRLSCAASGITFYDYAMGWSRQAPGKDRELVSAINSSGVRTYYADSVKGRFTISRDNAKNTVYLQMNSLKPEDTAVYYCAAERYYYFVPYWYDYWGQGTQVTVSS | high polyreactivity
18 | QVQLVESGGGLVQAGGSLRLSCAASGITFYDYAMGWYRQAPGKERELVAVITRRGGSTYYADSVKGRFTISRDNAKNTVYIQMNSLKPEDTAVYYCAADWRVWSFVRGVDYWGQGTQVTVSS | high polyreactivity
19 | QVQLVESGGGLVQAGGSLRLSCAASGITFYFNTMGWYRQAPGKERELVASISGGSSTYYADSVKGRFTISRDNAKYTVYLQMNSLKPEDTAVYYCNAQGSLFRGWFDYDYWGQGTQVTVSS | low polyreactivity
20 | QVQLVESGGGLVQAGGSLRLSCAASGITFYGNAMGWYRQAPGKERELVAAITYSGTSTYYADSVKGRFTISRDNAKNTVYLQMNSLKPEDTAVYYCAADEWYLVDYWGQGTQVTVSS | low polyreactivity
21 | QVQLVESGGGLVQAGGSLRLSCAASGITFYGNAMGWYRQAPGKERELVAGISSGGSTSYADSVKGRFTISRDNAKNTVYLQMNSLKPEDTAVYYCAKRWYYGTRYGTSYIRDYWGQGTQVTVSS | high polyreactivity
22 | QVQLVESGGGLVQAGGSLRLSCAASGITFYGYAMGWYRQAPGKEREFVAAISASGGSTYYADSVKGRFTISRDNAKNTVYLQMNSLKPEDTAVYYCAALVRGAYGYGYWGQGTQVTVSS | high polyreactivity

Row | Sequence | polyreactivity (PSR sort gate)
23 | QVQLVESGGGLVQAGGSLRLSCAASGITFYGYAMGWYRQAPGKERELVAAISSRGGSTYYADSVKGRFTISRDNAKNTVYLQMNRLKPEDTAVYYCAAVYYTGEYYYWGQGTQVTVSS | high polyreactivity
24 | QVQLVESGGGLVQAGGSLRLSCAASGITFYGYAMGWYRQAPGKERELVAAITRGGSTNYADSVKGRFTISRDNAKITPYLQMNSLKPEDTAVYYCNTYVGRRPGYGYWGQGTQVTVSS | high polyreactivity
25 | QVQLVESGGGLVQAGGSLRLSCAASGITFYGYAMGWYRQAPGKERELVAAITRGGSTNYADSVKGRFTISRDNAKNTVYLQMNSLKPEDTAVYYCAAEYSVYWYYRYEYWGQGTQVTVSS | high polyreactivity
26 | QVQLVESGGGLVQAGGSLRLSCAASGITFYGYAMGWYRQAPGKERELVARITASGGSTYYADSVKGRFTISRDNAKNTVYLQMKSLKPEVTAVYYCAKDWYRYSRFDYWGQGTQVTVSS | high polyreactivity
27 | QVQLVESGGGLVQAGGSLRLSCAASGITFYGYDKGWYRQAPGKERELGAAITSDGITNYADSVKGRFTISRDNAKNTVYLQMNSLKPEDTAVYYCAADLSFYRRYEWYYYWGQGTQVTVSS | low polyreactivity
28 | QVQLVESGGGLVQAGGSLRLSCAASGITFYGYDMGWYRQAPAKERELVAAITSDGITNYADSVKGRFTISRDNAKNTVYLQMNSLKPEDTAVYYCNAVFRPGSFLYDWRAYDYWGQGTQVTVSS | low polyreactivity
29 | QVQLVESGGGLVQAGGSLRLSCAASGITFYGYTMGWYRQAPGKERELVAAITSGGITYYADSVKGRFTISRDNAKNTVYLQMNSLKPEDTAVYYCNADDVWYEYDYWGEGTQVTVSS | high polyreactivity
30 | QVQLVESGGGLVQAGGSLRLSCAASGITFYHYAMGWYRQAPGKERELVAAISSDDNTNYADSVKGRFTISRDNEKNTVYLQMNSLNPEVTAVYYCNKRSLKNEPRYDYWGQGTQVTVSS | high polyreactivity
31 | QVQLVESGGGLVQAGGSLRLSCAASGITFYIYAMGWYRQAPGKERELVATISWSDGRTYYADSVKGRFTISRDNAKTTVYLQMNSLKPEDTAVYYCAADWWYYQFDYEYWGQGTQVTVSS | low polyreactivity
32 | QVQLVESGGGLVQAGGSLRLSCAASGITFYPNDMGWYRQAPGKERELVAAITTNDGDTYYADSVKGRFTISRDKAKNTVYLQMNSLKPEDTAVYYCAAASGSTSEYEYWGQGTQVTVSS | low polyreactivity
33 | QVQLVESGGGLVQAGGSLRLSCAASGITFYPYTMGWYRQAPGKERELVASISTSGTNYADSVKGRFTISRDNAKNTVYLQMNSLKPEDTAVYYCAADIWSYYRSTHVDSWGQGTQVTVSS | low polyreactivity
34 | QVQLVESGGGLVQAGGSLRLSCAASGITFYRNAMGWYRQAPGKEREFVAAITSSGGSTYYADSVKGRFTISRDNAKNTVYLQMNSLKPEDTAVYYCRPGRWRVSHKYDYWGQGTQVTVSS | high polyreactivity
35 | QVQLVESGGGLVQAGGSLRLSCAASGITFYRYAKGSYRQAPGKERELVAAIRRAGSTYYADSVKGRVTISRDNAKKTVYLQMNSLKPEDTAVYYCNARYGIGMNYWGQGTQVTVSS | high polyreactivity
36 | QVQLVESGGGLVQAGGSLRLSCAASGITFYRYAMGWYRQAPGKERELVAAISTSGGTTYYADSVKERFTISRDNAKNTVYLQMNSLKPEDTAVYYCAAQYLRWSRMDYWGQGTQVTVSS | high polyreactivity
37 | QVQLVESGGGLVQAGGSLRLSCAASGITFYRYAMGWYRQAPGKERELVAAITSSGGSTYYADSVKGRFTISRDNAKNTVYLQMNSLKPQDTAVYYCAARDLGRYPPKLYYWGQGTQVTVSS | high polyreactivity
38 | QVQLVESGGGLVQAGGSLRLSCAASGITFYRYAMGWYRQAPGTEREVVATITSGGSTYYADSVKGRFTISRDNAKNTVYLQMNSLKPEDTAVYYCAAESVWTWYYTTAGMDYWGQGTQVTVSS | high polyreactivity
39 | QVQLVESGGGLVQAGGSLRLSCAASGITFYRYMGWYRQAPGKERELVASITGRGGSTYYADSVKGRFTISRDNAKNTVYLQMNSLKPEDTAVYYCAARSYARPGGSRFDYWGQGTQVTVSS | high polyreactivity
40 | QVQLVESGGGLVQAGGSLRLSCAASGITFYRYTMGWYRQAPGKERELVATITSGASTSYADSVKGRFTISRDNAKNTVYLQMNSLKPEDTAVYYCAARRTRVTGRYSVYAFDYWGQGTQVTVSS | low polyreactivity
41 | QVQLVESGGGLVQAGGSLRLSCAASGITFYRYVMGWYRQAPGKERELVAAITTGDSTYYADSVKGRFTISRDNAKNTVYLQMNSLKPEDTAVYFCAAVYYTALANYDYWGQGTQVTVSS | low polyreactivity
42 | QVQLVESGGGLVQAGGSLRLSCAASGITFYTNAMGWYRQAPGKERELVAGISSSSGSTYYADSVKGRFTISRDNAKNTVYLQMNSLKPEDTAVYYCAADQDSTASDYKEYGYWGQGTQVTVSS | low polyreactivity
43 | QVQLVESGGGLVQAGGSLRLSCAASGITFYVKDMGWYRQAPGKEREFVAAISYRGGSTYYADSVKGRFTISRDNAKNTVYLQMNSLKPEDTAVYYCAADYNYWSPHRYDYWGQGTQVTVSW | low polyreactivity

Reference: the nanobody polyreactivity screen of Harvey et al. (2022)
